System: Escherichia coli TOP10
Experiment: shrunken log2 fold change of peptide-encoding DNA abundance (4.5 h post-induction vs induction); higher = less antimicrobial activity (less host growth inhibition)
Conditions: time post-induction: 4.5 h; library: site-saturation at positions 5, 18, 19, 20
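Note: peptides expressed intracellularly from a pBAD plasmid library in pooled LB shake-flask culture, induced with 0.3% L-arabinose, DNA abundance read by NGS, three biological replicates, DESeq2 with apeglm shrinkage.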

Sequence	shrunken log2 fold change
RRIRHRPPRLPRPRPRPFPFPRP	-0.758
RRIRIRPPRLPRPRPRPNKDPRP	-0.818
RRIRMRPPRLPRPRPRPMCQPRP	0.00866
RRIRHRPPRLPRPRPRPQLKPRP	0.114
RRIRWRPPRLPRPRPRPRFGPRP	0.395
RRIRFRPPRLPRPRPRPSVRPRP	-0.302
RRIRKRPPRLPRPRPRPVNDPRP	0.00208
RRIRCRPPRLPRPRPRPFWHPRP	-0.0854
RRIRDRPPRLPRPRPRPVTSPRP	-0.2
RRIRNRPPRLPRPRPRPVQQPRP	0.171
RRIRNRPPRLPRPRPRPQRRPRP	0.135
RRIRCRPPRLPRPRPRPYFDPRP	-0.446
RRIRPRPPRLPRPRPRPWMKPRP	-0.0651
RRIRPRPPRLPRPRPRPSDQPRP	0.029
RRIRSRPPRLPRPRPRPPTVPRP	0.153
RRIRTRPPRLPRPRPRPQTEPRP	-0.0173
RRIRWRPPRLPRPRPRPQTFPRP	-0.293
RRIRRRPPRLPRPRPRPYVVPRP	-0.121
RRIRIRPPRLPRPRPRPVVLPRP	-0.21
RRIRIRPPRLPRPRPRPCNHPRP	-0.232
RRIRLRPPRLPRPRPRPHMAPRP	0.0118
RRIRWRPPRLPRPRPRPDAIPRP	-0.0199
RRIRDRPPRLPRPRPRPWFLPRP	0.109
RRIRPRPPRLPRPRPRPTLRPRP	0.449
RRIRNRPPRLPRPRPRPVHNPRP	-0.289

Sequence	shrunken log2 fold change
RRIRYRPPRLPRPRPRPNAEPRP	-0.122
RRIRYRPPRLPRPRPRPGTTPRP	-0.0671
RRIRQRPPRLPRPRPRPVWNPRP	-0.344
RRIRVRPPRLPRPRPRPKKCPRP	0.0567
RRIRYRPPRLPRPRPRPDALPRP	-0.212
RRIRCRPPRLPRPRPRPAMYPRP	-0.265
RRIRMRPPRLPRPRPRPFISPRP	-0.4
RRIRMRPPRLPRPRPRPLSTPRP	0.0164
RRIRLRPPRLPRPRPRPEWFPRP	0.161
RRIRPRPPRLPRPRPRPVERPRP	0.289
RRIRERPPRLPRPRPRPMRFPRP	-0.0231
RRIRARPPRLPRPRPRPGANPRP	0.589
RRIRGRPPRLPRPRPRPPINPRP	0.21
RRIRERPPRLPRPRPRPKYWPRP	-0.202
RRIRARPPRLPRPRPRPSFIPRP	-0.177
RRIRPRPPRLPRPRPRPLADPRP	0.188
RRIRRRPPRLPRPRPRPDWAPRP	-0.221
RRIRHRPPRLPRPRPRPQNWPRP	0.0558
RRIRIRPPRLPRPRPRPFWKPRP	0.0187
RRIRSRPPRLPRPRPRPGLDPRP	0.127
RRIRIRPPRLPRPRPRPTRRPRP	0.298
RRIRTRPPRLPRPRPRPCTDPRP	-0.502
RRIRIRPPRLPRPRPRPYFAPRP	-0.694
RRIRSRPPRLPRPRPRPWRPPRP	0.0563
RRIRGRPPRLPRPRPRPRRKPRP	0.742

Sequence	shrunken log2 fold change
RRIRLRPPRLPRPRPRPRNQPRP	-0.204
RRIRGRPPRLPRPRPRPVCQPRP	0.664
RRIRWRPPRLPRPRPRPRLSPRP	0.154
RRIRRRPPRLPRPRPRPRFSPRP	0.425
RRIRPRPPRLPRPRPRPAPYPRP	-0.0601
RRIRKRPPRLPRPRPRPCRDPRP	-0.136
RRIRDRPPRLPRPRPRPTWNPRP	-0.07
RRIRSRPPRLPRPRPRPIGHPRP	-0.171
RRIRYRPPRLPRPRPRPKTYPRP	-0.781
RRIRHRPPRLPRPRPRPLGRPRP	0.218
RRIRWRPPRLPRPRPRPRINPRP	0.0839
RRIRMRPPRLPRPRPRPKGWPRP	1.75
RRIRDRPPRLPRPRPRPCAEPRP	0.508
RRIRNRPPRLPRPRPRPGMGPRP	0.307
RRIRTRPPRLPRPRPRPSSFPRP	-0.284
RRIRYRPPRLPRPRPRPVFTPRP	-0.574
RRIRIRPPRLPRPRPRPWGKPRP	-0.814
RRIRHRPPRLPRPRPRPAIQPRP	0.0477
RRIRQRPPRLPRPRPRPWEPPRP	0.106
RRIRARPPRLPRPRPRPGIMPRP	0.113
RRIRLRPPRLPRPRPRPNSIPRP	-0.0133
RRIRSRPPRLPRPRPRPYAAPRP	-0.0585
RRIRLRPPRLPRPRPRPCMVPRP	-0.365
RRIRIRPPRLPRPRPRPNGHPRP	-0.469
RRIRQRPPRLPRPRPRPMAEPRP	0.0238

Sequence	shrunken log2 fold change
RRIRCRPPRLPRPRPRPYTSPRP	-0.526
RRIRGRPPRLPRPRPRPKFQPRP	0.528
RRIRDRPPRLPRPRPRPATAPRP	0.722
RRIRFRPPRLPRPRPRPIGTPRP	-0.329
RRIRVRPPRLPRPRPRPQDRPRP	0.0443
RRIRMRPPRLPRPRPRPDKVPRP	0.359
RRIRQRPPRLPRPRPRPVWQPRP	0.232
RRIRFRPPRLPRPRPRPGHYPRP	-0.205
RRIRKRPPRLPRPRPRPGNGPRP	0.351
RRIRQRPPRLPRPRPRPMTDPRP	-0.0989
RRIRVRPPRLPRPRPRPIQVPRP	0.0304
RRIRPRPPRLPRPRPRPPDFPRP	-0.256
RRIRCRPPRLPRPRPRPIQSPRP	0.0164
RRIRPRPPRLPRPRPRPMVDPRP	-0.019
RRIRFRPPRLPRPRPRPLFFPRP	-0.259
RRIRDRPPRLPRPRPRPNHHPRP	-0.539
RRIRKRPPRLPRPRPRPERSPRP	0.245
RRIRFRPPRLPRPRPRPTAEPRP	0.593
RRIRDRPPRLPRPRPRPHSGPRP	-0.0339
RRIRMRPPRLPRPRPRPVDPPRP	0.0473
RRIRHRPPRLPRPRPRPANPPRP	0.0212
RRIRQRPPRLPRPRPRPRTWPRP	-0.182
RRIRTRPPRLPRPRPRPNHMPRP	-0.792
RRIRSRPPRLPRPRPRPRVGPRP	0.578
RRIRVRPPRLPRPRPRPRHYPRP	0.645

Sequence	shrunken log2 fold change
RRIRMRPPRLPRPRPRPCDWPRP	0.179
RRIRDRPPRLPRPRPRPENMPRP	0.0225
RRIRERPPRLPRPRPRPINLPRP	-0.338
RRIRFRPPRLPRPRPRPYYNPRP	-0.855
RRIRSRPPRLPRPRPRPEVQPRP	-0.0242
RRIRLRPPRLPRPRPRPWDWPRP	0.185
RRIRGRPPRLPRPRPRPHFGPRP	0.242
RRIRNRPPRLPRPRPRPCVGPRP	-0.129
RRIRPRPPRLPRPRPRPIWAPRP	0.384
RRIRQRPPRLPRPRPRPNGHPRP	-0.104
RRIRPRPPRLPRPRPRPVCIPRP	-0.122
RRIRMRPPRLPRPRPRPCKFPRP	0.12
RRIRIRPPRLPRPRPRPVARPRP	0.223
RRIRDRPPRLPRPRPRPHLHPRP	-0.0995
RRIRLRPPRLPRPRPRPPNQPRP	0.0881
RRIRFRPPRLPRPRPRPANYPRP	-0.43
RRIRYRPPRLPRPRPRPRHMPRP	-0.55
RRIRLRPPRLPRPRPRPGGHPRP	0.0643
RRIRHRPPRLPRPRPRPQQWPRP	-0.178
RRIRLRPPRLPRPRPRPFNMPRP	-0.189
RRIRVRPPRLPRPRPRPRRYPRP	-0.0486
RRIRVRPPRLPRPRPRPELFPRP	0.181
RRIRLRPPRLPRPRPRPNHLPRP	0.0169
RRIRPRPPRLPRPRPRPYRNPRP	-0.558
RRIRHRPPRLPRPRPRPSIVPRP	-0.0474

Sequence	shrunken log2 fold change
RRIRERPPRLPRPRPRPWELPRP	-0.238
RRIRARPPRLPRPRPRPEIAPRP	0.992
RRIRMRPPRLPRPRPRPMHKPRP	0.413
RRIRRRPPRLPRPRPRPVSLPRP	-0.15
RRIRHRPPRLPRPRPRPSGIPRP	-0.0153
RRIRPRPPRLPRPRPRPQCRPRP	0.00385
RRIRDRPPRLPRPRPRPSSAPRP	0.0666
RRIRRRPPRLPRPRPRPGCTPRP	0.183
RRIRDRPPRLPRPRPRPYKQPRP	-0.0404
RRIRCRPPRLPRPRPRPEDTPRP	-0.146
RRIRGRPPRLPRPRPRPMYKPRP	0.0271
RRIRYRPPRLPRPRPRPTIVPRP	-0.0265
RRIRTRPPRLPRPRPRPYKMPRP	-0.0239
RRIRLRPPRLPRPRPRPNKCPRP	-0.323
RRIRGRPPRLPRPRPRPLEYPRP	0.123
RRIRGRPPRLPRPRPRPWMCPRP	-0.13
RRIRCRPPRLPRPRPRPRRFPRP	0.338
RRIRPRPPRLPRPRPRPYQIPRP	-0.314
RRIRFRPPRLPRPRPRPWRRPRP	0.0103
RRIRMRPPRLPRPRPRPIACPRP	0.106
RRIRQRPPRLPRPRPRPRAPPRP	0.749
RRIRHRPPRLPRPRPRPGATPRP	0.0387
RRIRGRPPRLPRPRPRPRKWPRP	0.413
RRIRARPPRLPRPRPRPPLNPRP	0.612
RRIRWRPPRLPRPRPRPFWSPRP	0.284
